Test results taken from the supplement of paper PMC7877785.
± gives the uncertainty stated by the source.

Assay: self-splicing fitness, log relative to wild type (ln ratio); higher = more splicing; Tetrahymena group I intron in knt gene, E. coli kanamycin selection, DiMSum; sequences stand for … in CUCUCU…GGAGGGAAAAGUUAUCAGGCAUGCACCUGGUAGCUAGUCUUUAAACCAAUAGAUUGCAUCGGUUUAAAAGGCAAGACCGUCAAAUUGCGGGAAAGGGGUCAACAGCCGUUCAGUACCAAGUCUCAGGGGAAACUUUGAGAUGGCCUUGCAAAGGGUAUGGUAAUAAGCUGACGGACAUGGUCCUAACCACGCAGCCAAGUCCUAAGUCAACAGAUCUUCUGUUGAUAUGGAUGCAGUUCACAGACUAAAUGUCGGUCGGGGAAGAUGUAUUCUUCUCAUAAGAUAUAGUCGGACCUCUCCUUAAUGGGAGCUAGCGGAUGAAGUGAUGCAACACUGGAGCCGCUGGGAACUAAUUUGUAUGCGAAAGUAUAUUGAUUAGUUUUGGAGUACUCGUGGUCG
Procedure, shortened: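 DiMSum derived fitness as the error-weighted combination of fold changes across replicates, kanamycin versus no kanamycin, normalised to wild type. E. coli BL21(DE3) held the library, which randomised all eight P1ex-region intron nucleotides within the knt kanamycin-resistance gene on pET-22b(+). Six replicate transformations grew overnight at 37°C or 30°C on LB agar with or without 25 μg/mL kanamycin, also containing 100 μg/mL carbenicillin, 50 μM IPTG and 0.2% rhamnose, and pooled colonies were amplicon-sequenced on an Illumina HiSeq 2500.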

In the case of ACAAAGCAAUAUUACGGAAU, the “self-splicing fitness (ln)” value (30 °C) is reported as -3.21 ± 0.19 and the “self-splicing fitness (ln)” value (37 °C) is reported as -1.82 ± 0.19.
In the case of AUUCAGCAAUAUUACGAUAC, the “self-splicing fitness (ln)” value (30 °C) is reported as -1.17 ± 0.097 and the “self-splicing fitness (ln)” value (37 °C) is reported as 0.368 ± 0.11.
With UAUAAGCAAUAUUACGGCGU the “self-splicing fitness (ln)” value (30 °C) was -0.993 ± 0.093 and the “self-splicing fitness (ln)” value (37 °C) was -0.232 ± 0.12.
For UCCCAGCAAUAUUACGAAUU, the “self-splicing fitness (ln)” value (30 °C) was -3.04 ± 0.19 and the “self-splicing fitness (ln)” value (37 °C) was -2.27 ± 0.17.
For CGAGAGCAAUAUUACGUCUA, the “self-splicing fitness (ln)” value (30 °C) was -3.15 ± 0.36.
With CAGCAGCAAUAUUACGUUUG the “self-splicing fitness (ln)” value (30 °C) was -3.1 ± 0.16 and the “self-splicing fitness (ln)” value (37 °C) was -2.01 ± 0.16.
In the case of CCCUAGCAAUAUUACGUGUU, the “self-splicing fitness (ln)” value (30 °C) is reported as -4.27 ± 0.18 and the “self-splicing fitness (ln)” value (37 °C) is reported as -3.37 ± 0.17.
For CAAUAGCAAUAUUACGCUGU, the “self-splicing fitness (ln)” value (30 °C) was -3.13 ± 0.17 and the “self-splicing fitness (ln)” value (37 °C) was -2.07 ± 0.15.
With CCCCAGCAAUAUUACGAUGA the “self-splicing fitness (ln)” value (30 °C) was -3.16 ± 0.16 and the “self-splicing fitness (ln)” value (37 °C) was -3.01 ± 0.19.
With CAAGAGCAAUAUUACGACAA the “self-splicing fitness (ln)” value (30 °C) was -0.348 ± 0.28 and the “self-splicing fitness (ln)” value (37 °C) was -1.43 ± 0.39.
In the case of GCACAGCAAUAUUACGCACU, the “self-splicing fitness (ln)” value (30 °C) is reported as -0.263 ± 0.06 and the “self-splicing fitness (ln)” value (37 °C) is reported as 0.324 ± 0.077.
In the case of CUGGAGCAAUAUUACGCCUU, the “self-splicing fitness (ln)” value (37 °C) is reported as -1.6 ± 0.43.
For UCUAAGCAAUAUUACGUAGC, the “self-splicing fitness (ln)” value (30 °C) was -2.23 ± 0.19 and the “self-splicing fitness (ln)” value (37 °C) was -1.25 ± 0.2.
With UUCUAGCAAUAUUACGAAGA the “self-splicing fitness (ln)” value (30 °C) was -1.99 ± 0.19 and the “self-splicing fitness (ln)” value (37 °C) was -1.61 ± 0.21.
For CCCAAGCAAUAUUACGUUCG, the “self-splicing fitness (ln)” value (30 °C) was -2.11 ± 0.14 and the “self-splicing fitness (ln)” value (37 °C) was -2.49 ± 0.2.
With UACUAGCAAUAUUACGCCGG the “self-splicing fitness (ln)” value (30 °C) was -1.68 ± 0.18 and the “self-splicing fitness (ln)” value (37 °C) was -0.8 ± 0.17.
With CUUCAGCAAUAUUACGUUAU the “self-splicing fitness (ln)” value (30 °C) was -3.2 ± 0.26 and the “self-splicing fitness (ln)” value (37 °C) was -2.14 ± 0.28.
With CCACAGCAAUAUUACGCGCC the “self-splicing fitness (ln)” value (30 °C) was -3.03 ± 0.29.
With AGUCAGCAAUAUUACGUAAU the “self-splicing fitness (ln)” value (30 °C) was -1.16 ± 0.062 and the “self-splicing fitness (ln)” value (37 °C) was -0.387 ± 0.088.
With UCUAAGCAAUAUUACGAGGG the “self-splicing fitness (ln)” value (30 °C) was -3.29 ± 0.47 and the “self-splicing fitness (ln)” value (37 °C) was -2.61 ± 0.27.
In the case of GAAGAGCAAUAUUACGGUUG, the “self-splicing fitness (ln)” value (30 °C) is reported as -3.86 ± 0.35 and the “self-splicing fitness (ln)” value (37 °C) is reported as -2.18 ± 0.38.
For CAUUAGCAAUAUUACGUACA, the “self-splicing fitness (ln)” value (30 °C) was -2.7 ± 0.21 and the “self-splicing fitness (ln)” value (37 °C) was -2.58 ± 0.2.
With CCGUAGCAAUAUUACGGUAC the “self-splicing fitness (ln)” value (30 °C) was -3.37 ± 0.3.
In the case of GCGAAGCAAUAUUACGAUAA, the “self-splicing fitness (ln)” value (30 °C) is reported as -2.27 ± 0.15 and the “self-splicing fitness (ln)” value (37 °C) is reported as -1.46 ± 0.2.
For CGACAGCAAUAUUACGCCGU, the “self-splicing fitness (ln)” value (30 °C) was -2.62 ± 0.35 and the “self-splicing fitness (ln)” value (37 °C) was -1.55 ± 0.33.
With ACUAAGCAAUAUUACGCAGA the “self-splicing fitness (ln)” value (30 °C) was -1.89 ± 0.092 and the “self-splicing fitness (ln)” value (37 °C) was -1.5 ± 0.083.
With UGGAAGCAAUAUUACGUUGG the “self-splicing fitness (ln)” value (30 °C) was -2.69 ± 0.19 and the “self-splicing fitness (ln)” value (37 °C) was -0.902 ± 0.14.
In the case of AGCCAGCAAUAUUACGGCAA, the “self-splicing fitness (ln)” value (30 °C) is reported as -0.763 ± 0.067 and the “self-splicing fitness (ln)” value (37 °C) is reported as -0.321 ± 0.075.
In the case of GGUAAGCAAUAUUACGGCUA, the “self-splicing fitness (ln)” value (30 °C) is reported as 0.109 ± 0.085 and the “self-splicing fitness (ln)” value (37 °C) is reported as -0.0128 ± 0.11.
For GUGAAGCAAUAUUACGUCUU, the “self-splicing fitness (ln)” value (30 °C) was -1.6 ± 0.067 and the “self-splicing fitness (ln)” value (37 °C) was -0.642 ± 0.078.
With GAAGAGCAAUAUUACGAGCU the “self-splicing fitness (ln)” value (30 °C) was -4.07 ± 0.21 and the “self-splicing fitness (ln)” value (37 °C) was -1.61 ± 0.14.
In the case of GUCAAGCAAUAUUACGGAGG, the “self-splicing fitness (ln)” value (37 °C) is reported as -2.5 ± 0.25.
In the case of CCAGAGCAAUAUUACGUACC, the “self-splicing fitness (ln)” value (37 °C) is reported as -2 ± 0.35.
In the case of AUUCAGCAAUAUUACGUAAU, the “self-splicing fitness (ln)” value (30 °C) is reported as -0.328 ± 0.079 and the “self-splicing fitness (ln)” value (37 °C) is reported as 0.348 ± 0.11.
In the case of UGCGAGCAAUAUUACGUGAG, the “self-splicing fitness (ln)” value (30 °C) is reported as -4.57 ± 0.36 and the “self-splicing fitness (ln)” value (37 °C) is reported as -2.63 ± 0.18.
In the case of CCGAAGCAAUAUUACGUCCG, the “self-splicing fitness (ln)” value (30 °C) is reported as -0.46 ± 0.11 and the “self-splicing fitness (ln)” value (37 °C) is reported as -0.429 ± 0.095.
With UCUAAGCAAUAUUACGCCGU the “self-splicing fitness (ln)” value (30 °C) was -1.72 ± 0.12 and the “self-splicing fitness (ln)” value (37 °C) was -1.09 ± 0.19.
For CGCUAGCAAUAUUACGCCAC, the “self-splicing fitness (ln)” value (30 °C) was -3.86 ± 0.43 and the “self-splicing fitness (ln)” value (37 °C) was -1.09 ± 0.26.
With AUCGAGCAAUAUUACGACUU the “self-splicing fitness (ln)” value (30 °C) was -0.779 ± 0.15 and the “self-splicing fitness (ln)” value (37 °C) was -0.826 ± 0.19.
In the case of GCUAAGCAAUAUUACGGCAA, the “self-splicing fitness (ln)” value (30 °C) is reported as -2.17 ± 0.21 and the “self-splicing fitness (ln)” value (37 °C) is reported as -0.981 ± 0.16.
For GCGAAGCAAUAUUACGCGUU, the “self-splicing fitness (ln)” value (30 °C) was -2.54 ± 0.15 and the “self-splicing fitness (ln)” value (37 °C) was -2.77 ± 0.27.
With AGUCAGCAAUAUUACGUAAC the “self-splicing fitness (ln)” value (30 °C) was -1.88 ± 0.099 and the “self-splicing fitness (ln)” value (37 °C) was -1.37 ± 0.11.
In the case of UCACAGCAAUAUUACGGACC, the “self-splicing fitness (ln)” value (37 °C) is reported as -2.14 ± 0.29.
For UGUAAGCAAUAUUACGCUGG, the “self-splicing fitness (ln)” value (30 °C) was -1.24 ± 0.15 and the “self-splicing fitness (ln)” value (37 °C) was -1.85 ± 0.19.
